According to US20190169302A1 (SORRENTO THERAPEUTICS, published 2019):
Where two headings read alike, the source gives them in different places.

T1: human OX40 antigen (soluble, titrated in the ELISA of Example 1) (UniProt P43489 29-216)
T1 chain: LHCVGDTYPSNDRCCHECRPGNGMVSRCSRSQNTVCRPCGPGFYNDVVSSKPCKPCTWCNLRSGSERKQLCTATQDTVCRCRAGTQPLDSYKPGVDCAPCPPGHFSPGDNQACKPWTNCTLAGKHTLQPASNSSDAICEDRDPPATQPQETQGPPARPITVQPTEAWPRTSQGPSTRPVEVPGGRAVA

T2: Recombinant human OX40/His (human, UniProt P43489 29-216, limits assumed)
T2 construct: SPR analyte; also called human OX40 proteins; not shown: His tag
T2 sequence: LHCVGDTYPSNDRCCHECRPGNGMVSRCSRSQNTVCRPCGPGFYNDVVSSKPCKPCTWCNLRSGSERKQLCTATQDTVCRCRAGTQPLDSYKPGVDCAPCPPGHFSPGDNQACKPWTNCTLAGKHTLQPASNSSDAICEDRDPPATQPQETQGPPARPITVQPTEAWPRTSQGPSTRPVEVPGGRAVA

T3: Recombinant human OX40/His (UniProt P43489 29-216)
T3 chain: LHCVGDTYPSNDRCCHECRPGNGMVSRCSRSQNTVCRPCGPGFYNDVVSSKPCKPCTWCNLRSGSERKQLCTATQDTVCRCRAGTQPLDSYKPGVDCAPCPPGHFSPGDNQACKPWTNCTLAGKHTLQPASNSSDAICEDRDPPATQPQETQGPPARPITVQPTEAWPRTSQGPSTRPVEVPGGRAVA

T4: mouse OX40 (mouse, UniProt P47741 20-211, limits assumed)
T4 construct: Capture on Ni-NTA implies a His tag; also called mouse OX40 antigen
T4 sequence (looked up): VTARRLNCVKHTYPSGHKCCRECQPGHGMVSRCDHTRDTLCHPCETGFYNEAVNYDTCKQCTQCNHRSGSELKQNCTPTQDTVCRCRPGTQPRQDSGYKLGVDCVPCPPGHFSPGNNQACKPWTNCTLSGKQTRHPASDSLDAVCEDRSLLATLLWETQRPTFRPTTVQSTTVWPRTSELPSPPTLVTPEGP

T5: membrane-bound human OX40 (on human OX40-expressing cells) (human, UniProt P43489 29-277)
T5 construct: also called human OX40-expressing MJ cells; OX40+ HEK293-NFkB-luciferase reporter cells
T5 sequence: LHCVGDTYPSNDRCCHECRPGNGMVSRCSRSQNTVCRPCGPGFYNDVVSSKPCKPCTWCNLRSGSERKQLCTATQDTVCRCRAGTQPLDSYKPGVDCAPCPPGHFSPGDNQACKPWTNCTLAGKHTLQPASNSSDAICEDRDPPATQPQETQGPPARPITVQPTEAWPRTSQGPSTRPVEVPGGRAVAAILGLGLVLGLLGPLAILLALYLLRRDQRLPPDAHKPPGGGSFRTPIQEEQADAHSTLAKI


Experiments:
[1] = molecular target: human OX40/His (UniProt P43489); test: SPR
[2] = molecular target: T1, human OX40 antigen (soluble, titrated …); test: ELISA, immobilized Ab
[3] = molecular target: T2, Recombinant human OX40/His; test: SPR (Biacore T200), antibody captured by anti-human Fc, OX40/His as analyte, 1:1 model
Protocol: Kinetic interactions between antibodies and human OX40 proteins were measured at 25° C. using Biacore T200 surface plasmon resonance (GE Healthcare). Anti-human fragment crystallizable region (Fc region) antibody was immobilized on a CMS sensor chip to approximately 8000 resonance units (RU) using standard N-hydroxysuccinimide/N-Ethyl-N′-(3-dimethylaminopropyl) carbodiimide hydrochloride (NHS/EDC) coupling methodology. The anti-OX40 antibody (2 μg/mL) was captured for 60 seconds at a flow rate of 10 μL/minute. Recombinant human OX40/His was serially diluted in a running buffer of 0.01 M HEPES pH 7.4, 0.15 M NaCl, 3 mM EDTA, 0.05% v/v Surfactant P20 (HBS-EP+). All measurements were conducted in HBS-EP+ buffer with a flow rate of 30 μL/minute. A 1:1 (Langmuir) binding model was used to fit the data.

[4] = molecular target: T3, Recombinant human OX40/His; test: SPR
[5] = molecular target: T4, mouse OX40; test: ELISA, OX40 antigen captured on Ni-NTA plate, antibody at 1 ug/mL
Protocol: Ni-NTA plate was captured with 50 ul per well of human, mouse, and rhesus OX40 antigen solutions at a concentration of 1 ug/ml in PBS and incubated 1 hour at room temperature. After washing the plate with 0.05% PBS/Tween, 1 ug/mL the human anti-OX40 antibodies in Blocker™ Casein in PBS (Thermo Fisher Catalog Number: 37528) were added with 50 ul per well and incubated for one hour at room temperature. The plate was washed again with 0.05% PBS/Tween and incubated with 50 ul of Jackson Immuno Research Peroxidase AffiniPure Goat Anti-Human IgG, Fcγ Fragment (Catalog Number: 109-035-098) for one hour at room temperature. After washing, the plate was developed with 1-Step™ Ultra TMB-ELISA Substrate Solution (Thermo Fisher Catalog Number: 34028). The plate was read in the FlexStation 3 at OD 450.

[6] = molecular target: T3, Recombinant human OX40/His; test: SPR
[7] = molecular target: T5, membrane-bound human OX40 (on human …); test: flow cytometry on human OX40-expressing MJ cells

Kd [1] | IC50 [2] | Kd [3] | Kd [4] | binding result [5] | Kd [6] | binding result [7] | Molecule
3.2 nM | – | – | – | – | – | – | MOXR0916/RG7888
– | 0.0117 µg/mL | < 5 nM | 2.41 nM | – | – | – | 5-A6 variant anti-OX40 antibody (antibody, V domains shown) VH: QVQLVQSGAEVKKPGASVKVSCKTSGYTFTGYYLHWVRQAPGQGLEWMGIINPSDGSTRNAQKFEGRVTMTRDTSTSTVYMELSSLSPEDTAVYYCARDLEYIGSGSLSWFDPWGQGTLVTVSS VL: QSALTQPASVSGSPGQSITISCTGSSSDIGGYNSVSWYQQYPGKAPKLIIYDVNNRPSGVSNRFSGSKSGNTASLTISGLQAEDEADYYCSSYTFDTGLVYVFGTGTKVTVL
– | 0.0263 µg/mL | < 5 nM | 3.01 nM | – | – | – | 5-F5 variant anti-OX40 antibody (antibody, V domains shown) VH: QVQLVQSGAEVKKPGASVKVSCKTSGYTFTGYYLHWVRQAPGQGLEWMGIINPSDGSTRNAQKFEGRVTMTRDTSTSTVYMELSSLSPEDTAVYYCARDLEYIGSGSLSWFDPWGQGTLVTVSS VL: QSALTQPASVSGSPGQSITISCTGSSSDIGGYNSVSWYQQYPGKAPKLIIYDVNNRPSGVSNRFSGSKSGNTASLTISGLQAEDEADYYCSSYTYDTGLVYVFGTGTKVTVL
– | 0.168 µg/mL | – | 332 nM | no binding (tested: 1 ug/mL) | 332 nM | binds | 2B4 wild type anti-OX40 antibody (antibody, V domains shown, Fully human antibody of an IgG class, captured or detected through human Fc; the isotype control used was IgG1; also called 2B4 (WT); wild type 2B4) VH: QMQLVQSGAEVKKPGASVKVSCKTSGYTFTGYYLHWVRQAPGQGLEWMGIINPSDGSTRNAQKFEGRVTMTRDTSTSTVYMELSSLSPEDTAVYYCARDLEYIGSGSLSWFDPWGQGTLVTVSS VL: QPVLTQPASVSGSPGQSITISCTGTSSDLGAYDYVSWYQQQPGQAPKLIIYDVNNRPSGVSNRFSGSKSGNTASLTISGLQAEDEADYYCSSYTSSSTLVYVFGTGTKVTVL

Further lines, the molecule ahead of its results:

Molecule | Kd [1] | IC50 [2] | Kd [3] | Kd [4] | binding result [5] | Kd [6] | binding result [7]
5-A8 variant anti-OX40 antibody (antibody, V domains shown) VH: QVQLVQSGAEVKKPGASVKVSCKTSGYTFTGYYLHWVRQAPGQGLEWMGIINPSDGSTRNAQKFEGRVTMTRDTSTSTVYMELSSLSPEDTAVYYCARDLEYIGSGSLSWFDPWGQGTLVTVSS VL: QSALTQPASVSGSPGQSITISCTGSSSDIGGYNSVSWYQQYPGKAPKLIIYDVNNRPSGVSNRFSGSKSGNTASLTISGLQAEDEADYYCSSYTFHTGLVYVFGTGTKVTVL | – | 0.0163 µg/mL | < 5 nM | 4.37 nM | – | – | –
5-H6 variant anti-OX40 antibody (antibody, V domains shown) VH: QVQLVQSGAEVKKPGASVKVSCKTSGYTFTGYYLHWVRQAPGQGLEWMGIINPSDGSTRNAQKFEGRVTMTRDTSTSTVYMELSSLSPEDTAVYYCARDLEYIGSGSLSWFDPWGQGTLVTVSS VL: QSALTQPASVSGSPGQSITISCTGSSSDIGGYNSVSWYQQYPGKAPKLIIYDVNNRPSGVSNRFSGSKSGNTASLTISGLQAEDEADYYCSSYTYDNDLVYVFGTGTKVTVL | – | 0.0275 µg/mL | < 5 nM | 3.51 nM | – | – | –
5-C8 variant anti-OX40 antibody (antibody, V domains shown) VH: QVQLVQSGAEVKKPGASVKVSCKTSGYTFTGYYLHWVRQAPGQGLEWMGIINPSDGSTRNAQKFEGRVTMTRDTSTSTVYMELSSLSPEDTAVYYCARDLEYIGSGSLSWFDPWGQGTLVTVSS VL: QSALTQPASVSGSPGQSITISCTGSSSDIGGYNSVSWYQQYPGKAPKLIIYDVNNRPSGVSNRFSGSKSGNTASLTISGLQAEDEADYYCSSYTHNTGLVYVFGTGTKVTVL | – | 0.00353 µg/mL | < 5 nM | 4.39 nM | – | – | –
5-G8 variant anti-OX40 antibody (antibody, V domains shown) VH: QVQLVQSGAEVKKPGASVKVSCKTSGYTFTGYYLHWVRQAPGQGLEWMGIINPSDGSTRNAQKFEGRVTMTRDTSTSTVYMELSSLSPEDTAVYYCARDLEYIGSGSLSWFDPWGQGTLVTVSS VL: QSALTQPASVSGSPGQSITISCTGSSSDIGGYNSVSWYQQYPGKAPKLIIYDVNNRPSGVSNRFSGSKSGNTASLTISGLQAEDEADYYCSSYTYYTELVYVFGTGTKVTVL | – | 0.0254 µg/mL | < 5 nM | 3.8 nM | – | – | –
